This note sets out measurements from patent publication US20210292393A1 (published 2021).

The target in test [1] is T1, SARS-CoV-2 full length spike protein, V483A mutant (SARS-CoV-2, UniProt P0DTC2 14-1273).
T1 construct: also called SARS-CoV-2 V483A mutant
Kind of test: flow cytometry, CHO cells expressing full-length spike V483A. In general terms: In flow cytometry, cells or beads pass a laser one at a time.

In test [2] the target is T2, SARS-CoV-2 full length spike protein, D614G mutant (SARS-CoV-2, UniProt P0DTC2 14-1273).
T2 construct: also called SARS-CoV-2 D641G mutant
Kind of test: flow cytometry, CHO cells expressing full-length spike D614G (printed D641G).

Test [3] concerns the target T3, SARS-CoV-2 full length spike protein, V483A mutant (SARS-CoV-2, UniProt P0DTC2 14-1273).
Test [4] deals with T4, SARS-CoV-2 full length spike protein, V367F mutant (SARS-CoV-2, UniProt P0DTC2 14-1273).
T4 construct: also called SARS-CoV-2 V367F mutant
Briefly: flow cytometry, CHO cells expressing full-length spike V367F.

Test [5] has as its target SARS-CoV-2 full length spike protein, D614G mutant, expressed on CHO cells (SARS-CoV-2, UniProt P0DTC2 14-1273). Briefly: flow cytometry on CHO cells expressing spike D614G.
The target of test [6] is T5, SARS-CoV-2 full length spike protein, V483A mutant, expressed on CHO cells (SARS-CoV-2, UniProt P0DTC2 14-1273).
T5 construct: also called SARS-CoV-2 V483A mutant
Kind of test: flow cytometry on CHO cells expressing spike V483A.

Test [7] deals with T5, SARS-CoV-2 full length spike protein, ….
In test [8] the target is T6, SARS-CoV-2 full length spike protein, V367F mutant, expressed on CHO cells (SARS-CoV-2, UniProt P0DTC2 14-1273).
T6 construct: also called SARS-CoV-2 V367F mutant
Briefly: flow cytometry on CHO cells expressing spike V367F.

For test [9], the target named is T3, SARS-CoV-2 full length spike protein, …. Briefly: flow cytometry, CHO cells expressing full-length spike V483A. The source holds these as a separate data set.
Test [10] concerns the target T7, SARS-CoV-2 full length spike protein, V367F mutant (SARS-CoV-2, UniProt P0DTC2 14-1273).
T7 construct: also called SARS-CoV-2 V367F mutant
Briefly: flow cytometry, CHO cells expressing full-length spike V367F. The source holds these as a separate data set.

The target of test [11] is SARS-CoV-2 full length spike protein, D614G mutant (SARS-CoV-2, UniProt P0DTC2 14-1273). Briefly: flow cytometry, CHO cells expressing full-length spike D614G.
The target in test [12] is T1, SARS-CoV-2 full length spike protein, …. This is another data set of the same source.
In test [13] the target is T8, SARS-CoV-2 full length spike protein, V483A mutant, expressed on the surface of CHO cells (SARS-CoV-2, UniProt P0DTC2 14-1273).
Test [14] deals with T8, SARS-CoV-2 full length spike protein, …. Kind of test: flow cytometry, CHO cells expressing full-length spike V483A.
The target of test [15] is SARS-CoV-2 full length spike protein, D614G mutant (SARS-CoV-2, UniProt P0DTC2 14-1273).
Test [16] concerns the target SARS-CoV-2 full length spike protein, V367F mutant (SARS-CoV-2, UniProt P0DTC2 14-1273).

B1: antibody 443 (antibody, V domains shown)
VH: QMRLEESGPGLVKPSETLSLTCTVAGGSITSSDYFWGWLRQSPGKGLEWIASTYHGGSIQYHPALKSRVTISVDASKNQISLRLSSVTAADTAVYYCARDRGDDGPMGTYYFDHWGQGALVTVSS
VL: QSVLTQPPSVSGAPGQSVTISCAGSSSNIGAGHDVHWYQQIPGTAPKLLICGNTNRPSGVPERFSGSRSGTSASLAITGLQAEDEAVYYCQSYDPSHVFFGTGTKLTVL
With B1, in [1], the binding result is “no binding”.

B2: antibody 296 (antibody, V domains shown)
VH: EVQLVESGGGLVQPGGSLRLSCAGSGFTLSNYWMTWVRQAPGKGLEWVANINQDASRKYYGDSVKGRFSVSRDNAKNSLYLQMNSLTAEDTGFYYCVREELPSTPGSTWGQGTLVTVSS
VL: QSALTQPASVSGSPGQSITISCTGTSSDIGGYNHVSWYQQHPGKAPKLMIYGVSNRPSGVSDRFSGSKSDNTASLTISGLQAEDEADYYCSSPTSRGNKVFGTGTKVTVL
Turning to B2, the binding result in test [2] and in test [4] was “no binding” each time. In addition, the “median fluorescence intensity, fold over isotype control” value (“median fluorescence intensity, fold” below) in test [3] is 1.27 fold over isotype.

B3: antibody 377 (antibody, V domains shown)
VH: EVQLVESGGGLVKPGGSLRLSCATSGFTFRTYSMNWVRQAPGKGLEWVSSITTSRNYIYYADSVRGRFTISGDNANNSLYLQMNSLRAEDTAVYYCARVRFVRDTRKPYYFDFWGQGTLVTVSS
VL: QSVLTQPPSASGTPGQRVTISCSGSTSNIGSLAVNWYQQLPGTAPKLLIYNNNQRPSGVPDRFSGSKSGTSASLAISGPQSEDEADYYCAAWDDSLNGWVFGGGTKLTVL
Consider B3, for which the binding result in test [5], in test [6] and in test [8] was “no binding” throughout. For the same molecule, the “median fluorescence fold over isotype control” value in test [7] was 1.09 fold over isotype.

B4: antibody 290 (antibody, V domains shown)
VH: QVHLVQSGAEVKKPGASVKVSCAASGYTFNNYGVSWVRQAPGQGLEWMGWISASNGNTKYAQNLQGRVTMTTDTSTSTAYMELRSLRSDDTAVYYCARDLVGPTAPNYYYGMDVWGQGTAVTVSS
VL: QSVLTQPPSVSGAPGQRVTISCTGSSSSIGAGYDVHWYQQLPGTAPKLLIYANSNRPSGVPDRLSGSKSGTSASLAITGLQAEDEADYYCQSYDSSLSGYVFGTGTKVTVL
On to B4, for which the binding result in test [9] is “no binding”.

B5: antibody 432 (antibody, V domains shown)
VH: QVQLQESGPGLVKPSQTLSLTCTVSGGSISSGGYYWNWIRQHPGKGLEWIGYIYDSGSTYYNPSLKSRLTLSIDTSQNQFSLRRTSVTAADTAVYYCARGRQYDYDRTGLQYYFDYWGQGTLVTVSS
VL: EIVLTQSPGTLSLSPGERATLSCRASQSFSSSYLAWYQQKPGQAPRLLIYGASSRATGIPDRFSGSGSGTDFTLTISRLEPEDFAVYYCQQYGTSSLTFGGGTKVEIK
As to B5, the binding result in [10] and in test [1] was “no binding” each time.

B6: antibody 450 (antibody, V domains shown)
VH: EVQLVESGGGLVQPGGSLRLSCAASEFTFSSYWMSWVRQAPGKGLEWVANIKQDGSEKYYVDSVKGRFTISRDNAKNSLYLQMNSLRAEDTAVYYCARVGEYSGYDLFFDYWGQGTLVTVSS
VL: NFMLTQPHSVSESPGKTVTISYTGSSGSIASNYVQWYQQRPGSAPTTVIYEDNQRPSGVPDRFSGSIDSSSNSASLTISGLKTEDEADYYCQSYDSSNQGVFGGGTKLTVL
Regarding B6, the binding result in test [11], in test [10] and in test [1] was “no binding” each time. In addition, in [12], the “median fluorescence fold over isotype control” value was determined as 1.27 fold over isotype.

B7: antibody 380 (antibody, V domains shown)
VH: QVQLVESGGGVVQPGRSLRLSCAASGFTLKNYGMHWVRQAPGKGLEWVIVLSFDGSDEYKADSVRGRFTVSRDNSKNTLFLQMNSLRPDDTAVYYCAREQPTMIEGGRGPFDIWGQGTMVTVSS
VL: EVVMTQSPATLSVSPGDRATLSCRASQGVNSNLAWYQQKPGQAPRLLIYAASTRATGIPARFSASGSGTHFTLTISSLQSEDFAVYYCLQYNNWPPWTFGQGTKLEIK
As for B7, in test [6], the binding result is recorded as “no binding”.

B8: antibody 341 (antibody, V domains shown)
VH: QLQLQESGPGLVKPSETLSLTCTVSGGSISSSSYYWGWIRQPPGKGLEWIGSIYYSGSTYYNPSLKSRVTISVDTSKNQFSLKLSSVTAADTAVYYCARRPLRYFDWLTNFDYWGQGTLVTVSS
VL: EIVLTQSPATLSLSPGERATLSCRASQSVSSYLAWYQQKPGQAPRLLIYDASNRATGIPARFSGSGSGTDFTLTISSLEPEDFAVYYCQQRSNWPITFGQGTRLEIK
B8: the “median fluorescence intensity, fold” value in test [13] came to 1.01 fold over isotype. The binding result in [14] was “no binding”.

B9: antibody 434 (antibody, V domains shown)
VH: QVQLVQSGAEVKKPGASVQVSCKASGYTFSDYYIFWVRQAPGQGLEWMGCINPKSGGAIYAQRFQGRVTMTRDTSFNTAYMEMNRLGSDDTAVYYCVTRGPPDIAASGFAWHLDVWGQGTTVTVSS
VL: DIVMTQSPLSLPVTPGEPASISCRSSQSLLSSNGYNYLEWYLQKPGQSPQLLMYLGSNRASGVPDRFSGSGSGTDFTLKINRVEAEDVGVYYCMQALQTPLTFGGGTKVEIK
In the case of B9, the binding result in [1] is reported as “no binding”.

B10: antibody 585 (antibody, V domains shown)
VH: QVQLVESGGGVVQPGRSLRLSCAASGFTFATYAMHWVRQAPGKGLEWVALISHDGSNKHYADSVKGRFTISRDNSKKTLYLQMNSLRAEGTAIYYCARESLEAAAPPFDYWGQGTLVTVSS
VL: SYELTQPPSVSVSPGQTATIICSGDKLGEKYASWYQQKPGQSPALVIYQDRKRPSGIPERFSGSNSGNTATLTISGTQAMDEADYYCQAWDSSNSVVFGGGTKLTVP
On to B10, for which the “median fluorescence intensity, fold” value in [15] was determined as 7.49 fold over isotype; in test [16], 33 fold over isotype.
